Reference: patent US20160032278A1

Assays:
papain [1] = molecular target: papain (UniProt P00784); test: SPR, cystatin immobilised on NTA chip via His tag, papain in solution
papain [2] = molecular target: papain (UniProt P00784); test: SPR; text value differs from Table 3 (4.7 × 10^-9)
papain [3] = molecular target: papain (UniProt P00784); test: cell-based or functional assay

Chain of papain (P00784 134-345 limits assumed): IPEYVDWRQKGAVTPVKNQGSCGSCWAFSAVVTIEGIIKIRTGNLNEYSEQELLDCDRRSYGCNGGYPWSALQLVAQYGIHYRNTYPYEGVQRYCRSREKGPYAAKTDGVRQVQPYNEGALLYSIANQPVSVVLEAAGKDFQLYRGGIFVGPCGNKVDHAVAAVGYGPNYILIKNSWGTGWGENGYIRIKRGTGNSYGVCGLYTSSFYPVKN

Row | Ka (papain [1]) | Kd (papain [1]) | koff (papain [1]) | kon (papain [1]) | Kd (papain [2]) | IC50, papain inhibition (substrate pGlu-Phe-Leu-p-nitroanilide) (papain [3]) | Substance
1 | 5e+07 M⁻¹ | 20 nM | 0.0052 s⁻¹ | 260000 M⁻¹ s⁻¹ | – | – | CPA (papaya cystatin, Carcia papaya)
2 | 7.3e+07 M⁻¹ | 14 nM | 0.0035 s⁻¹ | 260000 M⁻¹ s⁻¹ | – | – | CUN (satsuma orange cystatin, Citrus unshiu)
3 | 2.1e+08 M⁻¹ | 4.7 nM | 0.0012 s⁻¹ | 260000 M⁻¹ s⁻¹ | 47 nM | 1.8e-07 M | OSA-IΔD86 (modified oryzacystatin I lacking residue Asp86) (from UniProt P09229 39-140)
